According to US20020086390A1:

Target: PAK I of frog (Lepidobatrachus laevis) oocytes, zygotes and embryos (frog (Lepidobatrachus laevis))
Assay: cell-based or functional assay

“GST-Cdc42Hs preloaded with GTPγS (from UniProt P60953 1-191)” was tested, and the degree of activation of inactive PAK I in DEAE-cellulose fractions (H4 phosphorylation) was 6 to 7 fold.
